The results in this text go back to US20110262445A1 (CEPHALON AUSTRALIA, published 2011).

Numbering of substitutions follows the chain as printed. Names and notes keep the numbering of the source.

B1: scFv AQ-G10 (scFv)
scFv: QVQLVQSGAEVEKPGASVKVSCKASGYTFTDYYLHWVRQAPGQGLEWMGWIDPENGDTEYAPKFQGGVTMTTDTSTSTAYMELRSLRSDDTAVYYCNANKELRYFDVWGQGTMVTVSSGGGGSGGGGSGGGGSEIVMTQSPATLSVSPGERATLSCRASQSISINLHWYQQKPGQAPRLLIYFASQSISGIPARFSGSGSGTEFTLTISSLQSEDFAVYYCQQSNSFPLTFGGGTKVEIKR
notes: scFv-80 variant: VH K12E, R66G; not shown: proprietary C-terminal FLAG tag
B2: scFv BU-B1 (scFv)
scFv: B1 scFv with E12K, L34M, G67R
notes: scFv-80 variant: VH L34M; not shown: proprietary C-terminal FLAG tag
B3: scFv AX-G4 (scFv)
scFv: B1 scFv with E12K, G67R, S159P
notes: scFv-80 variant: VL S26P; not shown: proprietary C-terminal FLAG tag
B4: scFv BB-A9 (scFv)
scFv: B1 scFv with E12K, T28A, G67R, T69S
notes: scFv-80 variant: VH T28A, T68S; not shown: proprietary C-terminal FLAG tag
B5: scFv CE-B1 (scFv)
scFv: B1 scFv with E12K, F29L, G67R
notes: scFv-80 variant: VH F29L; not shown: proprietary C-terminal FLAG tag
B6: scFv AV-F11 (scFv)
scFv: B1 scFv with E12K, G67R, S117P, I208T
notes: scFv-80 variant: VH S112P; VL I75T; not shown: proprietary C-terminal FLAG tag
B7: scFv CR-B1 (scFv)
scFv: B1 scFv with E12K, G67R, D89E
notes: scFv-80 variant: VH D85E; not shown: proprietary C-terminal FLAG tag
B8: scFv AU-G9 (scFv)
scFv: B1 scFv with E12K, Q43R, G67R, I188T
notes: scFv-80 variant: VH Q43R; VL I55T; not shown: proprietary C-terminal FLAG tag
B9: scFv combo. # 14 (scFv)
scFv: B1 scFv with E12K, F29L, Q43R, G67R, I188T
notes: scFv-80 with VH F29L, Q43R; VL I55T; not shown: proprietary C-terminal FLAG tag
B10: scFv combo. # 13 (scFv)
scFv: B1 scFv with E12K, T28A, Q43R, G67R, I188T
notes: scFv-80 with VH T28A, Q43R; VL I55T; not shown: proprietary C-terminal FLAG tag
B11: scFv BV-B2 (scFv)
scFv: B1 scFv with E12K, G67R, D215G
notes: scFv-80 variant: VL D82G; not shown: proprietary C-terminal FLAG tag
B12: scFv BY-B4 (scFv)
scFv: B1 scFv with E12K, T28A, G67R
notes: scFv-80 variant: VH T28A; not shown: proprietary C-terminal FLAG tag
B13: scFv AY-G7 (scFv)
scFv: B1 scFv with E12K, G67R, Y219H
notes: scFv-80 variant: VL Y86H; not shown: proprietary C-terminal FLAG tag
B14: scFv CL-G7 (scFv)
scFv: B1 scFv with E10Q, E12K, G67R
notes: scFv-80 variant: VH E10Q; not shown: proprietary C-terminal FLAG tag
B15: scFv CW-H7 (scFv)
scFv: B1 scFv with E12K, G67R, V146M
notes: scFv-80 variant: VL V13M; not shown: proprietary C-terminal FLAG tag
B16: scFv CE-A6 (scFv)
scFv: B1 scFv with E12K, G67R, G197S
notes: scFv-80 variant: VL G64S; not shown: proprietary C-terminal FLAG tag
B17: scFv CW-H1 (scFv)
scFv: B1 scFv with E12K, G67R, S185R
notes: scFv-80 variant: VL S52R; not shown: proprietary C-terminal FLAG tag
B18: scFv AY-B2 (scFv)
scFv: B1 scFv with E12K, G67R, M70V
notes: scFv-80 variant: VH M69V; not shown: proprietary C-terminal FLAG tag
B19: scFv AZ-D8 (scFv)
scFv: B1 scFv with E12K, Y27C, G67R
notes: scFv-80 variant: VH Y27C; not shown: proprietary C-terminal FLAG tag
B20: scFv BZ-G10 (scFv)
scFv: B1 scFv with E12K, G67R, Q160R
notes: scFv-80 variant: VL Q27R; not shown: proprietary C-terminal FLAG tag

The first test concerns the target T1, human IL-12 (human, UniProt P29460 23-328; P29459 23-219).
T1 construct: Recombinant (Peprotech); FLAG-tagged IL-12 in the flow cytometry assays, biotinylated in the IL-12Rβ2 assay; also called hIL-12
T1 sequence 1: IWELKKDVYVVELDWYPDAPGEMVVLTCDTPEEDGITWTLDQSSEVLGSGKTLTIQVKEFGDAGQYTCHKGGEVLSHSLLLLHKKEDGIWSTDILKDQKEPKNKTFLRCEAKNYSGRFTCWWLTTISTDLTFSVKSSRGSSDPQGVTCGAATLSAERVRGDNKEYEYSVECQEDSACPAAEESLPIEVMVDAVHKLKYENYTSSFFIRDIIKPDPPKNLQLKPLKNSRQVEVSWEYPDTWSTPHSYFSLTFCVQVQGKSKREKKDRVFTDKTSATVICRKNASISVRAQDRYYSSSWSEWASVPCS
T1 sequence 2: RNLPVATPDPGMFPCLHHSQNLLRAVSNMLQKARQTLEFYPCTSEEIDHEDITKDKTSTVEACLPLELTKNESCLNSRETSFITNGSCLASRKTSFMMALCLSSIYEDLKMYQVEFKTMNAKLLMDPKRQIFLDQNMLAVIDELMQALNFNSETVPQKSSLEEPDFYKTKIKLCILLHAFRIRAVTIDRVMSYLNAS
Briefly: SPR, purified scFv captured via FLAG. Here is the method:
(§1) A number of the scFv variants presented in TABLE 4 were selected for full characterization of binding kinetics, encompassing a broad range of mutation profiles and binding affinities. Large-scale protein expressions were carried out for each scFv. The expressed scFvs were purified as monomeric proteins and tested for binding against IL-12 and IL-23 by SPR (TABLE 5).
(§2) Purified scFvs were subjected to full kinetic characterization using a BIAcore T100 biosensor (GE Healthcare). Approximately 10,000 RU of the proprietry FLAG-specific capture molecule was immobilized on a CM5 Series S Sensor chip, using standard amine coupling chemistry in flow cells (FC) 1 and FC2 (or alternatively FC3 and FC4) of the BIAcore T100 Biosensor. The running buffer used was HBS-EP+ (BIAcore) and interactions measured at 30° C. or 35° C. to promote differentiation of scFvs with very similiar kd values. Peak purified FLAG-tagged scFvs (prepared as described in the previous paragraph) were diluted to 10 nM in running buffer, and captured on FC2 at a flow rate of 10 μl/min in order to capture 50 RU of scFv (typically 60 sec was sufficient to capture this level of tagged scFv). After an appropriate stabilization period, the target, IL-12 or IL-23, were passed over FC1 and FC2 at a flow rate of 60 μl/min at concentrations ranging from 81 nM to 0.13 nM (using a five-fold dilution of IL-12) and 81 nM to 1 nM (using a three-fold dilution of IL-23). The contact time for association was 180 sec and dissociation measured for 10 mins for the highest concentration and 300 sec for all other concentrations in the series. The sensorgram data from FC2 was subtracted from FC1 and a buffer only control. The curves were fitted using a 1:1 Langmuir equation to generate the kₐ, kd and KD values.
B1 had an equilibrium dissociation constant (Kd) of 350 pM, a koff of 0.00052 s⁻¹ and a kon of 1.5e+06 M⁻¹ s⁻¹.

Take B2: the Kd turned out to be 120 pM, the koff came out at 0.00024 s⁻¹ and the kon is 2e+06 M⁻¹ s⁻¹.

With B3, the Kd came to 140 pM, the koff is 0.00031 s⁻¹ and the on-rate constant (kon) was found to be 2.3e+06 M⁻¹ s⁻¹.

For B4, the Kd came out at 120 pM, the koff was 0.00023 s⁻¹ and the kon was 2e+06 M⁻¹ s⁻¹.

On to B5, for which the Kd was determined as 89 pM, the koff is 0.00018 s⁻¹ and the kon was found to be 2e+06 M⁻¹ s⁻¹.

B6 gave a dissociation constant Kd of 200 pM, a koff of 0.00033 s⁻¹ and a kon of 1.6e+06 M⁻¹ s⁻¹.

B7 came in with a Kd of 230 pM, a koff of 0.00044 s⁻¹ and a kon of 1.9e+06 M⁻¹ s⁻¹.

The molecule B8 returned a Kd of 110 pM, a koff of 0.00024 s⁻¹ and a kon of 2.1e+06 M⁻¹ s⁻¹.

The next test deals with T2, human IL-23 (human, UniProt P29460 23-328; Q9NPF7 20-189).
T2 construct: Recombinant (Ebioscience); HIS-tagged in flow cytometry, biotinylated in some assays; also called hIL-23; rhIL-23
T2 sequence 1: T1 sequence 1
T2 sequence 2: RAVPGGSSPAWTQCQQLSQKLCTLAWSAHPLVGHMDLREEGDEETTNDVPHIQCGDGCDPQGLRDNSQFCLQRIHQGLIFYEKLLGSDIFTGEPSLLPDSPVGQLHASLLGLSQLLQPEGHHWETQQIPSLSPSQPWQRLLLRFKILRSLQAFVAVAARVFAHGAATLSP
Put plainly: SPR, purified scFv captured via FLAG. Here is the method: as §1, §2
The molecule B1 showed a Kd of 170 pM, a koff of 4.9e-05 s⁻¹ and a kon of 280000 M⁻¹ s⁻¹.

B2 displayed a Kd of 120 pM, a koff of 3.7e-05 s⁻¹ and a kon of 300000 M⁻¹ s⁻¹.

For B3, the affinity, expressed as Kd, was 150 pM; the koff amounted to 5.5e-05 s⁻¹; the kon worked out at 360000 M⁻¹ s⁻¹.

For B4, binding was characterised by a dissociation constant (Kd) of 160 pM, the koff turned out to be 4.4e-05 s⁻¹ and the on-rate constant (kon) came out at 310000 M⁻¹ s⁻¹.

For the molecule B5, the dissociation constant (Kd) stood at 98 pM, the koff was determined as 3e-05 s⁻¹ and the kon amounted to 310000 M⁻¹ s⁻¹.

B6 gave a Kd of 93 pM, a koff of 2.5e-05 s⁻¹ and an on-rate constant (kon) of 270000 M⁻¹ s⁻¹.

B7 came in with a Kd of 130 pM, a koff of 4.1e-05 s⁻¹ and a kon of 320000 M⁻¹ s⁻¹.

On to B8, for which binding was characterised by a dissociation constant (Kd) of 130 pM, the koff was 4.4e-05 s⁻¹ and the kon stood at 340000 M⁻¹ s⁻¹.

A further test concerns the target T2, human IL-23. Put plainly: SPR, single 81 nM analyte, scFv via FLAG.
On to B9, for which binding was characterised by a dissociation constant (Kd) of 79 pM, the koff was found to be 2.1e-05 s⁻¹ and the kon was determined as 270000 M⁻¹ s⁻¹.

In turn, B10 yielded a Kd of 51 pM, a koff of 1.3e-05 s⁻¹ and a kon of 250000 M⁻¹ s⁻¹.

The target of another test is T2, human IL-23. Put plainly: SPR screen, crude scFv captured via FLAG. Here is the method: Approximately 6500 individual scFvs recovered from the ribosome display reactions were expressed and screened for binding against IL-23 using a high-throughout SPR assay. The variants were ranked according to the kd and the best variants were sequenced at the nucleic acid level.
High-throughput SPR screening was conducted using a BIAcore A100 biosensor (GE Healthcare). Approximately 10 000 RU of the proprietary FLAG-specific capture molecule was immobilized on a CM5 Series S Sensor chip, using standard amine coupling chemistry on Spots 1 & 5 (outer spots) and 3,000RU to Spots 2 & 4 (inner spots) in each of the four flow cells of the BIAcore A100 Biosensor. The running buffer used was HBS-EP+ (BIAcore) and all interactions measured at 25° C. Crude periplasmic preparations of FLAG-tagged scFvs (prepared as described in the previous paragraph), were diluted two-fold in running buffer before capturing at a flow rate of 5u1/min for 60 sec. Approx. 100RU (on outer spots) and 50RU (on inner spots) of tagged scFv was captured. Following a 2 min stabilization period, IL-23 was passed over all spots of all four flow cells simultaneously at a flow rate of 30u1/min for 120 sec and dissociation monitored for 200 sec. Generated sensorgrams were referenced against the unmodified spot 3 of each flow cell, and fitted using a 1:1 Langmuir equation with R1 set to local to account for varying ligand densities to generate the kₐ, kd and KD values.
B1: the koff turned out to be 0.00029 s⁻¹.

B11 returned a koff of 0.00029 s⁻¹.

B2 yielded a koff of 0.00029 s⁻¹.

Turning to B12, the koff turned out to be 0.00033 s⁻¹.

On to B3, for which the koff was determined as 0.00036 s⁻¹.

In turn, B4 gave a dissociation rate constant (koff) of 0.00045 s⁻¹.

The molecule B5 came in with a koff of 0.00028 s⁻¹.

In turn, B13 displayed a koff of 0.00012 s⁻¹. This koff lies about 2.3-fold lower than the previous one.

In turn, B6 gave a koff of 0.00028 s⁻¹.

On to B7, for which the koff was determined as 0.00026 s⁻¹.

Take B14: the koff is 0.00012 s⁻¹.

B15 displayed a koff of 0.000278 s⁻¹.

The molecule B16 came in with a koff of 0.00033 s⁻¹.

The molecule B17 had a koff of 0.00016 s⁻¹.

B8: the koff worked out at 0.00031 s⁻¹.

For the molecule B18, the dissociation rate constant (koff) came out at 0.0001 s⁻¹. Against the preceding molecule, the koff is about 3.1-fold lower.

Turning to B19, the koff worked out at 4.3e-05 s⁻¹.

The molecule B20 showed a koff of 0.00036 s⁻¹.
